The target of the assay is optineurin, C-terminal myc-FLAG-tagged (UniProt Q96CV9 1-577). The assay is described as follows: co-IP.

These results are taken from doi:10.1101/2022.06.02.494603 (bioRxiv, 2022).

Chain of optineurin, C-terminal myc-FLAG-tagged (Q96CV9 whole entry): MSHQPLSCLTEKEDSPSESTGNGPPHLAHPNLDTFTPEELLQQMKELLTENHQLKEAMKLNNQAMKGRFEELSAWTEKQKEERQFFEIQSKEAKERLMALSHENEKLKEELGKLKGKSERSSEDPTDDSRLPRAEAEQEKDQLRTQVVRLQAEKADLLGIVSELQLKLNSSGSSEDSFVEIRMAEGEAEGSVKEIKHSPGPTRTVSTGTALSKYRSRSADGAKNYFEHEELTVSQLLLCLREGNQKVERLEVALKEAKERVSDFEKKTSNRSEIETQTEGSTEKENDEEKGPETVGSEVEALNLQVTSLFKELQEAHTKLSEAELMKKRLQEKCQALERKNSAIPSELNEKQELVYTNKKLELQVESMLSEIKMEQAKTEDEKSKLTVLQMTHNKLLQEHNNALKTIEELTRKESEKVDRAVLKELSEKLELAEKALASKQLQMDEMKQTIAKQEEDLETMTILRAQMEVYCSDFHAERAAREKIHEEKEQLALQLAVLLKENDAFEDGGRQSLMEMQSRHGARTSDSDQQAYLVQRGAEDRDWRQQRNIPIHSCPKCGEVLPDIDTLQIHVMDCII

B1: TBK1 T4A, untagged (natural protein, human, UniProt Q9UHD2 1-729, looked up)
chain: MQSASNHLWLLSDILGQGATANVFRGRHKKTGDLFAIKVFNNISFLRPVDVQMREFEVLKKLNHKNIVKLFAIEEETTTRHKVLIMEFCPCGSLYTVLEEPSNAYGLPESEFLIVLRDVVGGMNHLRENGIVHRDIKPGNIMRVIGEDGQSVYKLTDFGAARELEDDEQFVSLYGTEEYLHPDMYERAVLRKDHQKKYGATVDLWSIGVTFYHAATGSLPFRPFEGPRRNKEVMYKIITGKPSGAISGVQKAENGPIDWSGDMPVSCSLSRGLQVLLTPVLANILEADQEKCWGFDQFFAETSDILHRMVIHVFSLQQMTAHKIYIHSYNTATIFHELVYKQTKIISSNQELIYEGRRLVLEPGRLAQHFPKTTEENPIFVVSREPLNTIGLIYEKISLPKVHPRYDLDGDASMAKAITGVVCYACRIASTLLLYQELMRKGIRWLIELIKDDYNETVHKKTEVVITLDFCIRNIEKTVKVYEKLMKINLEAAELGEISDIHTKLLRLSSSQGTIETSLQDIDSRLSPGGSLADAWAHQEGTHPKDRNVEKLQVLLNCMTEIYYQFKKDKAERRLAYNEEQIHKFDKQKLYYHATKAMTHFTDECVKKYEAFLNKSEEWIRKMLHLRKQLLSLTNQCFDIEEEVSKYQEYTNELQETLPQKMFTASSGIKHTMTPIYPSSNTLVEMTLGMKKLKEEMEGVVKELAENNHILERFGSLTMDGGLRNVDCL
For B1, the “TBK1 bound to OPTN relative to wild type” value was 1.93 relative to TBK1 WT.
